The text below walks through data of article PMC10198859.

Starred links: 1 amine or outer side, 2 acyl side, 3 side chain; linkers in the order of their positions; H or OH if unused. No end group written: not given here. *: point of attachment. Suc = O=C(CCC(=O)[*:2])[*:1]; For = O=C*

The assay addresses murine TLR2/TLR6 (mouse (endogenous in RAW 264.7 and P388.D1)) (UniProt Q9QUN7).
Chain of UniProt Q9QUN7 (Q9QUN7 25-784, chain 1 of 2): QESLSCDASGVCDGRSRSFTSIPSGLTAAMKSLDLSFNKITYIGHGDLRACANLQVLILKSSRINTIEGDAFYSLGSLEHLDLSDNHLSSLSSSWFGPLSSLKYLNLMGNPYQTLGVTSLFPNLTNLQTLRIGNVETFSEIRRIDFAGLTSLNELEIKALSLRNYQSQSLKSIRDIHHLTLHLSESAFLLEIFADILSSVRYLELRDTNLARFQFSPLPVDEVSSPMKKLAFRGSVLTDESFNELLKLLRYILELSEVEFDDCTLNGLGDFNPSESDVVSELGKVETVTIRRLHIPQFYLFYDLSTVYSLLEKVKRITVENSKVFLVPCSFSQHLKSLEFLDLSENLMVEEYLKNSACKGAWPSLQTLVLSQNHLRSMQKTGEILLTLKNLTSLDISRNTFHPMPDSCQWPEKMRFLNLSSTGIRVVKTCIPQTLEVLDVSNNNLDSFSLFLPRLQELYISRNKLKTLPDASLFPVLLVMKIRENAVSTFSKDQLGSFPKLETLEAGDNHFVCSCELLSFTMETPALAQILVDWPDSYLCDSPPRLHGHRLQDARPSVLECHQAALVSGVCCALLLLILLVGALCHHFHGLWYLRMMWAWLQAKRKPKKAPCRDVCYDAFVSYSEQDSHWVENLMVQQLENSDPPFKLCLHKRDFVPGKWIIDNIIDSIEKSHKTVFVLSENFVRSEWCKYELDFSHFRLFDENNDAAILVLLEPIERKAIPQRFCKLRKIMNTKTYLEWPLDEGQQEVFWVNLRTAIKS
Chain of UniProt Q9QUN7 (Q9EPW9 28-795, chain 2 of 2, further chain): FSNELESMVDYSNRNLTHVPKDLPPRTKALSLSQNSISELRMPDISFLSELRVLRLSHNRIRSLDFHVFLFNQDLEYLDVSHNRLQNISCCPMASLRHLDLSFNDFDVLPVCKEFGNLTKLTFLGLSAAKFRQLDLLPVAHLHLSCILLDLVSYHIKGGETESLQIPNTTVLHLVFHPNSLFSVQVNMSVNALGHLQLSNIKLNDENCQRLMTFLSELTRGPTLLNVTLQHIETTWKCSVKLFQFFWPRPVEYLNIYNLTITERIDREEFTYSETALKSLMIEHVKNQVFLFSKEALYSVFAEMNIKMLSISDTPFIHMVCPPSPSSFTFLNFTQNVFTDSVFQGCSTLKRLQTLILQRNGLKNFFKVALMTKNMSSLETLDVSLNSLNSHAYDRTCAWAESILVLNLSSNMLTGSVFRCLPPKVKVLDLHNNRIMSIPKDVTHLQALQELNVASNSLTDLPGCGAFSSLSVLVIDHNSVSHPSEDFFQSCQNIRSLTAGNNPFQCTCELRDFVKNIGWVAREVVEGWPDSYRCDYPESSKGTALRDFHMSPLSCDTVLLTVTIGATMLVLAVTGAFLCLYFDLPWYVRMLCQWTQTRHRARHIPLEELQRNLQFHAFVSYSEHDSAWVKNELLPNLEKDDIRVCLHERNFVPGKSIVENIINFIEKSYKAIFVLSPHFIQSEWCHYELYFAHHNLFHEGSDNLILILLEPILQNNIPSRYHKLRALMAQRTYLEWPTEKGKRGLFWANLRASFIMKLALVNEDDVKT

In turn, “-fM-BacSp222 (from UniProt A0A0P0C3P7 2-50) (peptide)” returned a TNF in the medium (ELISA) of P388.D1 cells, 1 µM -fM-BacSp222, 6 h, without antagonist of 257 pg/mL.
Consider For-MAGLLRFLLSKGRALYNWAK(Suc)SHVGKVWEWLKSGATYEQIKEWIENALGWR [suc-K20-BacSp222], for which the TNF in the medium (ELISA) of P388.D1 cells, 1 µM suc-K20-BacSp222, 6 h, without antagonist is 213 pg/mL and the TNF in the medium (ELISA) of RAW 264.7 cells, 1 µM suc-K20-BacSp222, 6 h, without antagonist came to 1280 pg/mL.
In turn, For-MAGLLRFLLSKGRALYNWAKSHVGKVWEWLKSGATYEQIKEWIENALGWR [BacSp222 bacteriocin] showed a TNF in the medium (ELISA) of P388.D1 cells, 1 µM BacSp222, 6 h, without antagonist of 252 pg/mL and a TNF in the medium (ELISA) of RAW 264.7 cells, 1 µM BacSp222, 6 h, without antagonist of 976 pg/mL.
